The values below come from the supplement of paper PMC11875167.

A short description of the data set: observed amide hydrogen exchange rate constant kobs (stretched exponential fit, FD-normalized) (s^-1); higher = faster H/D exchange (less protection). The conditions noted are these: pH 3 (pH read); temperature: 20 °C; D2O: 88%. The essentials: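 Uptake curves were fitted to a stretched single exponential with β = 0.8, and kobs, the observed exchange rate constant, is the fitted rate. The data came from Jurkat tryptic peptides (LysC/trypsin, carbamidomethylated cysteines) labeled in 88% D2O at pHread 3, 20 °C, then quenched with 0.23% formic acid at 13 times from 18 to 93,600 s in processing triplicates. MS1 uptake from a Q-Exactive HF, analyzed in HDExaminer with no back-exchange correction, was normalized to full-deuteration controls (24 h, 37 °C).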
On to SIQFVDWCPTGFK, for which the “observed amide hydrogen exchange rate constant kobs” value was 0.00182.
The result for IETIEVMEDR reads 0.00148; that for TATESFASDPILYRPVAVALDTK, 0.000776.
The value for VETGVLKPGMVVTFAPVNVTTEVK was 0.000574.
IISSIEQK: the “observed amide hydrogen exchange rate constant kobs” value worked out at 0.00126.
For DLTDYLMK, the “observed amide hydrogen exchange rate constant kobs” value amounted to 0.00113.
With IQLINNMLDK, the “observed amide hydrogen exchange rate constant kobs” value is 0.00081.
As to AGLQFPVGR, the “observed amide hydrogen exchange rate constant kobs” value came to 0.00107.
In the case of FNVWDTAGQEK, the “observed amide hydrogen exchange rate constant kobs” value was found to be 0.00146.
With DLSHIGDAVVISCAK, the “observed amide hydrogen exchange rate constant kobs” value was 0.00192.
IGEHTPSALAIMENANVLAR: the “observed amide hydrogen exchange rate constant kobs” value came out at 0.000813.
In the case of FFEVILIDPFHK, the “observed amide hydrogen exchange rate constant kobs” value came to 0.000722.
For the substance AAVPSGASTGIYEALELRDNDK, the “observed amide hydrogen exchange rate constant kobs” value was found to be 0.00126.
On to DLPLLLFR, for which the “observed amide hydrogen exchange rate constant kobs” value stood at 0.000629.
As to LMDVGLIAIR, the “observed amide hydrogen exchange rate constant kobs” value worked out at 0.000707.
As to GDEELDSLIK, the “observed amide hydrogen exchange rate constant kobs” value amounted to 0.000999.
In the case of NPPGFAFVEFEDPRDAADAVR, the “observed amide hydrogen exchange rate constant kobs” value was found to be 0.00134.
The result for YPIEHGIITNWDDMEK reads 0.00172; that for YPALHKPENQDIDWGALEGETR, 0.0022.
On to YHTSQSGDEMTSLSEYVSR, for which the “observed amide hydrogen exchange rate constant kobs” value turned out to be 0.00202.
The value for ESVPEFPLSPPK was 0.00083.
Regarding PMPNPNPNHPSSSGSFSDADLADGVSGGEGK, the “observed amide hydrogen exchange rate constant kobs” value stood at 0.00261.
For IFGVTTLDIVR, the “observed amide hydrogen exchange rate constant kobs” value amounted to 0.000765.
The value for EGIPALDNFLDKL was 0.00119; that for VEIIANDQGNR was 0.00189.
In the case of VVSSIEQK, the “observed amide hydrogen exchange rate constant kobs” value is 0.00104.
As to LVIITAGAR, the “observed amide hydrogen exchange rate constant kobs” value came to 0.000717.
For the substance DQVANSAFVER, the “observed amide hydrogen exchange rate constant kobs” value was 0.00108.
The result for TENLLGSYFPK reads 0.00102; that for PFEVPFLK, 0.000569; that for AHSSMVGVNLPQK, 0.000759.
Regarding DLADELALVDVIEDK, the “observed amide hydrogen exchange rate constant kobs” value stood at 0.00109.
For TLLGDGPVVTDPK, the “observed amide hydrogen exchange rate constant kobs” value turned out to be 0.000938.
As to DVNAAIATIK, the “observed amide hydrogen exchange rate constant kobs” value is 0.000675.
On to LVPGGGATEIELAK, for which the “observed amide hydrogen exchange rate constant kobs” value stood at 0.00089.
The result for STGGAPTFNVTVTK reads 0.000782; that for SESPKEPEQLRK, 0.00165; that for RALEQQVEEMK, 0.000806.
IMNTFSVVPSPK: the “observed amide hydrogen exchange rate constant kobs” value was determined as 0.000631.
Take FAAYFQQGDMESNGK: the “observed amide hydrogen exchange rate constant kobs” value came out at 0.00182.
The result for GFGFILFK reads 0.000667; that for MFVGGLSWDTSK, 0.00136.
Turning to CPNLTHLNLSGNK, the “observed amide hydrogen exchange rate constant kobs” value came to 0.00139.
With GNFGGSFAGSFGGAGGHAPGVAR, the “observed amide hydrogen exchange rate constant kobs” value stood at 0.00196.
With TLTIVDTGIGMTK, the “observed amide hydrogen exchange rate constant kobs” value came out at 0.000986.
Consider LLGELLQDNAK, for which the “observed amide hydrogen exchange rate constant kobs” value is 0.000855.
Regarding NLPLPPPPPPR, the “observed amide hydrogen exchange rate constant kobs” value was 0.00144.
The result for DSYVGDEAQSK reads 0.00207; that for QIVWNGPVGVFEWEAFAR, 0.00105.
For CILQDGR, the “observed amide hydrogen exchange rate constant kobs” value was found to be 0.00103.
As for TSRPENAIIYNNNEDFQVGQAK, the “observed amide hydrogen exchange rate constant kobs” value was 0.00112.
For the substance LILPHVDIQLK, the “observed amide hydrogen exchange rate constant kobs” value was determined as 0.000852.
As to APIIAVTR, the “observed amide hydrogen exchange rate constant kobs” value turned out to be 0.000401.
As for IHFPLATYAPVISAEK, the “observed amide hydrogen exchange rate constant kobs” value stood at 0.000691.
Consider VLITTDLLAR, for which the “observed amide hydrogen exchange rate constant kobs” value worked out at 0.000753.
As for SVPTSTVFYPSDGVATEK, the “observed amide hydrogen exchange rate constant kobs” value was 0.000911.
For FYEAFSK, the “observed amide hydrogen exchange rate constant kobs” value was 0.00122.
Consider RAPFDLFENK, for which the “observed amide hydrogen exchange rate constant kobs” value is 0.00167.
Take YALYDATYETK: the “observed amide hydrogen exchange rate constant kobs” value is 0.00134.
Regarding IYVLLR, the “observed amide hydrogen exchange rate constant kobs” value was 0.000454.
The result for EGGLGPLNIPLLADVTR reads 0.000844; that for TIGGGDDSFNTFFSETGAGK, 0.00246.
Regarding LIDDMVAQVLK, the “observed amide hydrogen exchange rate constant kobs” value is 0.000612.
Regarding GNSIIMLEALERV, the “observed amide hydrogen exchange rate constant kobs” value came out at 0.00109.
For the substance GLTSVINQK, the “observed amide hydrogen exchange rate constant kobs” value stood at 0.000815.
For TLFPLIEAK, the “observed amide hydrogen exchange rate constant kobs” value stood at 0.000566.
Consider ITLPVDFVTADKFDENAK, for which the “observed amide hydrogen exchange rate constant kobs” value came to 0.0013.
Consider IEEELGSK, for which the “observed amide hydrogen exchange rate constant kobs” value came out at 0.00244.
On to LDNLVAILDINR, for which the “observed amide hydrogen exchange rate constant kobs” value worked out at 0.00063.
In the case of AVDSQILPK, the “observed amide hydrogen exchange rate constant kobs” value turned out to be 0.000865.
On to ALGQNPTNAEVLK, for which the “observed amide hydrogen exchange rate constant kobs” value amounted to 0.000979.
EVFSMAGVVVR: the “observed amide hydrogen exchange rate constant kobs” value was found to be 0.00144.
As to AIIIFVPVPQLK, the “observed amide hydrogen exchange rate constant kobs” value came out at 0.000266.
Take LAHEVGWK: the “observed amide hydrogen exchange rate constant kobs” value was 0.00169.
For HEHQVMLMR, the “observed amide hydrogen exchange rate constant kobs” value came to 0.00145.
Regarding TDTGEPMGR, the “observed amide hydrogen exchange rate constant kobs” value stood at 0.00239.
Consider IEDVTPIPSDSTR, for which the “observed amide hydrogen exchange rate constant kobs” value is 0.00154.
The result for VAVATPAK reads 0.000839.
AFLASPEYVNLPINGNGK: the “observed amide hydrogen exchange rate constant kobs” value worked out at 0.000869.
With GNPTVEVDLFTSK, the “observed amide hydrogen exchange rate constant kobs” value was 0.000833.
Take VLEQLTGQTPVFSK: the “observed amide hydrogen exchange rate constant kobs” value was 0.00081.
The value for INISEGNCPER was 0.000833; that for ILGLLDAYLK was 0.00089; that for ALAENSGVK was 0.00135.
On to IREEYPDR, for which the “observed amide hydrogen exchange rate constant kobs” value came out at 0.00399.
The value for GFGFVDFNSEEDAK was 0.00238.
As to AVCMLSNTTAIAEAWAR, the “observed amide hydrogen exchange rate constant kobs” value is 0.000746.
The value for MINTDLSR was 0.000886.
The value for EDSQRPGAHLTVK was 0.00212.
For the substance VAVLGASGGIGQPLSLLLK, the “observed amide hydrogen exchange rate constant kobs” value was determined as 0.000683.
As for ELQEMDKDDESLIK, the “observed amide hydrogen exchange rate constant kobs” value was 0.00203.
The result for TAFDEAIAELDTLNEDSYK reads 0.00156; that for NLDIERPTYTNLNR, 0.00136; that for VMLGETNPADSKPGTIR, 0.00166.
Consider EGVHGGLINKK, for which the “observed amide hydrogen exchange rate constant kobs” value worked out at 0.0019.
The value for ALESPERPFLAILGGAK was 0.00092; that for EMLQQSK was 0.00166.
For the substance ALPGQLKPFETLLSQNQGGK, the “observed amide hydrogen exchange rate constant kobs” value was determined as 0.0011.
Take VSHLLGINVTDFTR: the “observed amide hydrogen exchange rate constant kobs” value was found to be 0.00119.
The result for ISVVSTK reads 0.000812; that for SPYQEFTDHLVK, 0.00116.
In the case of LVKQELK, the “observed amide hydrogen exchange rate constant kobs” value is 0.000709.
Turning to EGIPPDQQR, the “observed amide hydrogen exchange rate constant kobs” value was found to be 0.00171.
As to ASILNTWISLK, the “observed amide hydrogen exchange rate constant kobs” value was found to be 0.000492.
As to VLLPEYGGTK, the “observed amide hydrogen exchange rate constant kobs” value was determined as 0.00144.
The value for ELISNSSDALDK was 0.00235; that for VLTVINQTQK was 0.00141.
In the case of DSPSVWAAVPGK, the “observed amide hydrogen exchange rate constant kobs” value amounted to 0.000933.
Turning to GVNLPGAAVDLPAVSEK, the “observed amide hydrogen exchange rate constant kobs” value stood at 0.0011.
For GSYGDLGGPIITTQVTIPK, the “observed amide hydrogen exchange rate constant kobs” value was determined as 0.000771.
The value for LLIHQSLAGGIIGVK was 0.000892; that for GLVGEIIK was 0.000569; that for TLVDIAK was 0.000674.
The result for LLLPGELAK reads 0.000859.
Take VRVELSNGEK: the “observed amide hydrogen exchange rate constant kobs” value was determined as 0.00127.
In the case of VEVQYK, the “observed amide hydrogen exchange rate constant kobs” value was determined as 0.00112.
In the case of AGKPVICATQMLESMIK, the “observed amide hydrogen exchange rate constant kobs” value stood at 0.00088.
The value for GLAPDLPEDLYHLIK was 0.00112; that for SLTNDWEDHLAVK was 0.00185; that for EIQTAVR was 0.001.
Consider DLSLEEIQK, for which the “observed amide hydrogen exchange rate constant kobs” value was found to be 0.00108.
The value for GAVDGGLSIPHSTK was 0.00225.
The result for MFVLDEADEMLSR reads 0.00164; that for RVIISAPSADAPMFVMGVNHEK, 0.000994; that for EDLHDMLASLGK, 0.00199.
The result for AGFAGDDAPR reads 0.00357; that for GHYTEGAELVDSVLDVVRK, 0.00131; that for FHGTVK, 0.00166.
In the case of ATFMVGSYGPRPEEYEFLTPVEEAPK, the “observed amide hydrogen exchange rate constant kobs” value is 0.00103.
